# Laboratory results reported in publication PMC8298264, “Function of cofactor Akirin2 in the regulation of gene expression in model human neutrophil-like HL60 cells” (Bioscience Reports, 2021).
# B1: sp¦O94874¦UFL1_HUMAN (protein, UniProt O94874 2-794, looked up)
# E3 UFM1-protein ligase 1: ADAWEEIRRLAADFQRAQFAEATQRLSERNCIEIVNKLIAQKQLEVVHTLDGKEYITPAQISKEMRDELHVRGGRVNIVDLQQVINVDLIHIENRIGDIIKSEKHVQLVLGQLIDENYLDRLAEEVNDKLQESGQVTISELCKTYDLPGNFLTQALTQRLGRIISGHIDLDNRGVIFTEAFVARHKARIRGLFSAITRPTAVNSLISKYGFQEQLLYSVLEELVNSGRLRGTVVGGRQDKAVFVPDIYSRTQSTWVDSFFRQNGYLEFDALSRLGIPDAVSYIKKRYKTTQLLFLKAACVGQGLVDQVEASVEEAISSGTWVDIAPLLPTSLSVEDAAILLQQVMRAFSKQASTVVFSDTVVVSEKFINDCTELFRELMHQKAEKEMKNNPVHLITEEDLKQISTLESVSTSKKDKKDERRRKATEGSGSMRGGGGGNAREYKIKKVKKKGRKDDDSDDESQSSHTGKKKPEISFMFQDEIEDFLRKHIQDAPEEFISELAEYLIKPLNKTYLEVVRSVFMSSTTSASGTGRKRTIKDLQEEVSNLYNNIRLFEKGMKFFADDTQAALTKHLLKSVCTDITNLIFNFLASDLMMAVDDPAAITSEIRKKILSKLSEETKVALTKLHNSLNEKSIEDFISCLDSAAEACDIMVKRGDKKRERQILFQHRQALAEQLKVTEDPALILHLTSVLLFQFSTHSMLHAPGRCVPQIIAFLNSKIPEDQHALLVKYQGLVVKQLVSQSKKTGQGDYPLNNELDKEQEDVASTTRKELQELSSSIKDLVLKSRKSSVTEE
# B2: sp¦Q96E11¦RRFM_HUMAN (protein, UniProt Q96E11 56-262, looked up)
# Ribosome-recycling factor, …: ATKKAKAKGKGQSQTRVNINAALVEDIINLEEVNEEMKSVIEALKDNFNKTLNIRTSPGSLDKIAVVTADGKLALNQISQISMKSPQLILVNMASFPECTAAAIKAIRESGMNLNPEVEGTLIRVPIPQVTREHREMLVKLAKQNTNKAKDSLRKVRTNSMNKLKKSKDTVSEDTIRLIEKQISQMADDTVAELDRHLAVKTKELLG
# B3: sp¦Q15006¦EMC2_HUMAN (protein, UniProt Q15006 2-297, looked up)
# ER membrane protein complex …: AKVSELYDVTWEEMRDKMRKWREENSRNSEQIVEVGEELINEYASKLGDDIWIIYEQVMIAALDYGRDDLALFCLQELRRQFPGSHRVKRLTGMRFEAMERYDDAIQLYDRILQEDPTNTAARKRKIAIRKAQGKNVEAIRELNEYLEQFVGDQEAWHELAELYINEHDYAKAAFCLEELMMTNPHNHLYCQQYAEVKYTQGGLENLELSRKYFAQALKLNNRNMRALFGLYMSASHIASNPKASAKTKKDNMKYASWAASQINRAYQFAGRSKKETKYSLKAVEDMLETLQITQS
# B4: sp¦Q9BTE7¦DCNL5_HUMAN (protein, UniProt Q9BTE7 1-237, looked up)
# DCN1-like protein 5: MPVKKKRKSPGVAAAVAEDGGLKKCKISSYCRSQPPARLISGEEHFSSKKCLAWFYEYAGPDEVVGPEGMEKFCEDIGVEPENIIMLVLAWKLEAESMGFFTKEEWLKGMTSLQCDCTEKLQNKFDFLRSQLNDISSFKNIYRYAFDFARDKDQRSLDIDTAKSMLALLLGRTWPLFSVFYQYLEQSKYRVMNKDQWYNVLEFSRTVHADLSNYDEDGAWPVLLDEFVEWQKVRQTS
# B5: sp¦P50570¦DYN2_HUMAN (protein, UniProt P50570 1-870, looked up)
# Dynamin-2: MGNRGMEELIPLVNKLQDAFSSIGQSCHLDLPQIAVVGGQSAGKSSVLENFVGRDFLPRGSGIVTRRPLILQLIFSKTEHAEFLHCKSKKFTDFDEVRQEIEAETDRVTGTNKGISPVPINLRVYSPHVLNLTLIDLPGITKVPVGDQPPDIEYQIKDMILQFISRESSLILAVTPANMDLANSDALKLAKEVDPQGLRTIGVITKLDLMDEGTDARDVLENKLLPLRRGYIGVVNRSQKDIEGKKDIRAALAAERKFFLSHPAYRHMADRMGTPHLQKTLNQQLTNHIRESLPALRSKLQSQLLSLEKEVEEYKNFRPDDPTRKTKALLQMVQQFGVDFEKRIEGSGDQVDTLELSGGARINRIFHERFPFELVKMEFDEKDLRREISYAIKNIHGVRTGLFTPDLAFEAIVKKQVVKLKEPCLKCVDLVIQELINTVRQCTSKLSSYPRLREETERIVTTYIREREGRTKDQILLLIDIEQSYINTNHEDFIGFANAQQRSTQLNKKRAIPNQGEILVIRRGWLTINNISLMKGGSKEYWFVLTAESLSWYKDEEEKEKKYMLPLDNLKIRDVEKGFMSNKHVFAIFNTEQRNVYKDLRQIELACDSQEDVDSWKASFLRAGVYPEKDQAENEDGAQENTFSMDPQLERQVETIRNLVDSYVAIINKSIRDLMPKTIMHLMINNTKAFIHHELLAYLYSSADQSSLMEESADQAQRRDDMLRMYHALKEALNIIGDISTSTVSTPVPPPVDDTWLQSASSHSPTPQRRPVSSIHPPGRPPAVRGPTPGPPLIPVPVGAAASFSAPPIPSRPGPQSVFANSDLFPAPPQIPSRPVRIPPGIPPGVPSRRPPAAPSRPTIIRPAEPSLLD
# B6: sp¦Q9GZY6¦NTAL_HUMAN (protein, UniProt Q9GZY6 1-243, looked up)
# Linker for activation of …: MSSGTELLWPGAALLVLLGVAASLCVRCSRPGAKRSEKIYQQRSLREDQQSFTGSRTYSLVGQAWPGPLADMAPTRKDKLLQFYPSLEDPASSRYQNFSKGSRHGSEEAYIDPIAMEYYNWGRFSKPPEDDDANSYENVLICKQKTTETGAQQEGIGGLCRGDLSLSLALKTGPTSGLCPSASPEEDEESEDYQNSASIHQWRESRKVMGQLQREASPGPVGSPDEEDGEPDYVNGEVAATEA
# B7: sp¦Q29RF7¦PDS5A_HUMAN (protein, UniProt Q29RF7 1-1337, looked up)
# Sister chromatid cohesion …: MDFTAQPKPATALCGVVSADGKIAYPPGVKEITDKITTDEMIKRLKMVVKTFMDMDQDSEDEKQQYLPLALHLASEFFLRNPNKDVRLLVACCLADIFRIYAPEAPYTSHDKLKDIFLFITRQLKGLEDTKSPQFNRYFYLLENLAWVKSYNICFELEDCNEIFIQLFRTLFSVINNSHNKKVQMHMLDLMSSIIMEGDGVTQELLDSILINLIPAHKNLNKQSFDLAKVLLKRTVQTIEACIANFFNQVLVLGRSSVSDLSEHVFDLIQELFAIDPHLLLSVMPQLEFKLKSNDGEERLAVVRLLAKLFGSKDSDLATQNRPLWQCFLGRFNDIHVPVRLESVKFASHCLMNHPDLAKDLTEYLKVRSHDPEEAIRHDVIVTIITAAKRDLALVNDQLLGFVRERTLDKRWRVRKEAMMGLAQLYKKYCLHGEAGKEAAEKVSWIKDKLLHIYYQNSIDDKLLVEKIFAQYLVPHNLETEERMKCLYYLYASLDPNAVKALNEMWKCQNMLRSHVRELLDLHKQPTSEANCSAMFGKLMTIAKNLPDPGKAQDFVKKFNQVLGDDEKLRSQLELLISPTCSCKQADICVREIARKLANPKQPTNPFLEMVKFLLERIAPVHIDSEAISALVKLMNKSIEGTADDEEEGVSPDTAIRSGLELLKVLSFTHPTSFHSAETYESLLQCLRMEDDKVAEAAIQIFRNTGHKIETDLPQIRSTLIPILHQKAKRGTPHQAKQAVHCIHAIFTNKEVQLAQIFEPLSRSLNADVPEQLITPLVSLGHISMLAPDQFASPMKSVVANFIVKDLLMNDRSTGEKNGKLWSPDEEVSPEVLAKVQAIKLLVRWLLGMKNNQSKSANSTLRLLSAMLVSEGDLTEQKRISKSDMSRLRLAAGSAIMKLAQEPCYHEIITPEQFQLCALVINDECYQVRQIFAQKLHKALVKLLLPLEYMAIFALCAKDPVKERRAHARQCLLKNISIRREYIKQNPMATEKLLSLLPEYVVPYMIHLLAHDPDFTRSQDVDQLRDIKECLWFMLEVLMTKNENNSHAFMKKMAENIKLTRDAQSPDESKTNEKLYTVCDVALCVINSKSALCNADSPKDPVLPMKFFTQPEKDFCNDKSYISEETRVLLLTGKPKPAGVLGAVNKPLSATGRKPYVRSTGTETGSNINVNSELNPSTGNRSREQSSEAAETGVSENEENPVRIISVTPVKNIDPVKNKEINSDQATQGNISSDRGKKRTVTAAGAENIQQKTDEKVDESGPPAPSKPRRGRRPKSESQGNATKNDDLNKPINKGRKRAAVGQESPGGLEAGNAKAPKLQDLAKKAAPAERQIDLQR
# B8: sp¦P63151¦2ABA_HUMAN (protein, UniProt P63151 2-447, looked up)
# Serine/threonine-protein …: AGAGGGNDIQWCFSQVKGAVDDDVAEADIISTVEFNHSGELLATGDKGGRVVIFQQEQENKIQSHSRGEYNVYSTFQSHEPEFDYLKSLEIEEKINKIRWLPQKNAAQFLLSTNDKTIKLWKISERDKRPEGYNLKEEDGRYRDPTTVTTLRVPVFRPMDLMVEASPRRIFANAHTYHINSISINSDYETYLSADDLRINLWHLEITDRSFNIVDIKPANMEELTEVITAAEFHPNSCNTFVYSSSKGTIRLCDMRASALCDRHSKLFEEPEDPSNRSFFSEIISSISDVKFSHSGRYMMTRDYLSVKIWDLNMENRPVETYQVHEYLRSKLCSLYENDCIFDKFECCWNGSDSVVMTGSYNNFFRMFDRNTKRDITLEASRENNKPRTVLKPRKVCASGKRKKDEISVDSLDFNKKILHTAWHPKENIIAVATTNNLYIFQDKVN
# B9: sp¦Q9BVI4¦NOC4L_HUMAN (protein, UniProt Q9BVI4 1-516, looked up)
# Nucleolar complex protein 4 …: MEREPGAAGVRRALGRRLEAVLASRSEANAVFDILAVLQSEDQEEIQEAVRTCSRLFGALLERGELFVGQLPSEEMVMTGSQGATRKYKVWMRHRYHSCCNRLGELLGHPSFQVKELALSALLKFVQLEGAHPLEKSKWEGNYLFPRELFKLVVGGLLSPEEDQSLLLSQFREYLDYDDTRYHTMQAAVDAVARVTGQHPEVPPAFWNNAFTLLSAVSLPRREPTVSSFYVKRAELWDTWKVAHLKEHRRVFQAMWLSFLKHKLPLSLYKKVLLIVHDAILPQLAQPTLMIDFLTRACDLGGALSLLALNGLFILIHKHNLEYPDFYRKLYGLLDPSVFHVKYRARFFHLADLFLSSSHLPAYLVAAFAKRLARLALTAPPEALLMVLPFICNLLRRHPACRVLVHRPHGPELDADPYDPGEEDPAQSRALESSLWELQALQRHYHPEVSKAASVINQALSMPEVSIAPLLELTAYEIFERDLKKKGPEPVPLEFIPAQGLLGRPGELCAQHFTLS
# B10: sp¦Q9Y383¦LC7L2_HUMAN (protein, UniProt Q9Y383 1-392, looked up)
# Putative RNA-binding protein …: MSAQAQMRAMLDQLMGTSRDGDTTRQRIKFSDDRVCKSHLLNCCPHDVLSGTRMDLGECLKVHDLALRADYEIASKEQDFFFELDAMDHLQSFIADCDRRTEVAKKRLAETQEEISAEVAAKAERVHELNEEIGKLLAKVEQLGAEGNVEESQKVMDEVEKARAKKREAEEVYRNSMPASSFQQQKLRVCEVCSAYLGLHDNDRRLADHFGGKLHLGFIEIREKLEELKRVVAEKQEKRNQERLKRREEREREEREKLRRSRSHSKNPKRSRSREHRRHRSRSMSRERKRRTRSKSREKRHRHRSRSSSRSRSRSHQRSRHSSRDRSRERSKRRSSKERFRDQDLASCDRDRSSRDRSPRDRDRKDKKRSYESANGRSEDRRSSEEREAGEI
# Test system: human HL60 cells
# Experiment: SWATH-MS proteomics, differential protein representation, akirin2 KO vs WT HL60 cells
# Assay type: cell-based
# Details: SWATH-MS, akirin2 KO vs WT HL60 cells; sheet "Under-represented in KO"
# Outline: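 First, proteins from wild-type and knockout cells are digested with trypsin by FASP. Next, pooled IDA runs generate a reference ion library. Then six samples of 5 µg each are acquired by data-independent SWATH, and protein areas are normalized to the summed area of all detected proteins.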
Molecule,Fold Change,Log (Fold Change)
B1,0.7911,-0.1018
B2,0.7929,-0.1008
B3,0.7911,-0.1017
B4,0.7927,-0.1009
B5,0.7916,-0.1015

# Same assay, conditions: akirin2 KO vs WT HL60 cells; sheet "Under-represented in KO"
Molecule,Fold Change,Log (Fold Change)
B6,0.3739,-0.4273
B7,0.08984,-1.047
B8,0.3625,-0.4407
B9,0.3572,-0.4471
B10,0.3527,-0.4526
